No end group written: not given here.
Target: T1, FAM-tat peptide (UniProt P04608, also: FAM label, position not given here)
T1 chain: AAARKKRRQRRRAAA
Experiment: SPR

GGCAGAUCUGAGCCUGGGAGCUCUCUGCC (structured_RNA) [biotin-TAR RNA]
Kd: 380 nM
